{
  "source": "paper PMC5347741",
  "proteins": {"B1": {"name": "CD147: FUT1 transfection (CA-FUT1) (protein)", "parent chain": "MAAALFVLLGFALLGTHGASGAAGTVFTTVEDLGSKILLTCSLNDSATEVTGHRWLKGGVVLKEDALPGQKTEFKVDSDDQWGEYSCVFLPEPMGTANIQLHGPPRVKAVKSSEHINEGETAMLVCKSESVPPVTDWAWYKITDSEDKALMNGSESRFFVSSSQGRSELHIENLNMEADPGQYRCNGTSSKGSDQAIITLRVRSHLAALWPFLGIVAEVLVLVTIIFIYEKRRKPEDVLDDDDAGSAPLKSSGQHQNDKGKNVRQRNSS"}},
  "assay": "immunohistochemistry, nude mouse xenograft",
  "conditions": "glycan changed form; control: untransfected CAOV3 cells",
  "data": [
    {"protein": "B1", "values": [
      {"measurement": "expression_or_secretion", "value": "increases"}
    ]}
  ]
}
